Data: paper PMC12846072

Molecular target: VP2 capsid protein of Epizootic hemorrhagic disease virus serotype 8, wild type (Epizootic hemorrhagic disease virus serotype 8 (EHDV-8)) (UniProt Q00273)
Experiment: SEC; FPLC-SEC on Superose 6 16/300 in PBS 1X pH 7.4, calibrated with the gel filtration HMW calibration kit; oligomeric state from retention time

Substance “VP2 capsid protein of Epizootic hemorrhagic disease virus serotype 8, wild type (from UniProt Q00273 1-971) (natural protein)” has a stoichiometry N of 3.
